Results on 52 molecules are retold here after patent publication US7056679.

The chains are these.
B1: DGI-2-40F-3-B116 (peptide, not shown: large carriers)
peptide: GVVRAQQGLRYELQGDRYRLRRTQWLTVTYCSPSWAFAGCAAAGAPVPYPDPLEPRP
B2: DGI-2-40F-3-B5 (peptide, not shown: large carriers)
peptide: RSRSSSGASGSMLRVQNHMVLGSWMVRQPMGSMTPFHGHGAAAGAPVPYPDPLEPRP
B3: DGI-2-40F-4-F12 (peptide, not shown: large carriers)
peptide: GLYRRAGDASVGFSRWGRFDCQVYFSVECLLGSSWGGYSAAAGAPVPYPDPLEPRP
B4: DGI-2-40F-3-C52 (peptide, not shown: large carriers)
peptide: GLLFTSSPYQCFWVHCTLTMSPLSVLGDLSSTIGRMRASRAAAGAPVPYPDPLEPRP
B5: DGI-2-40F-3-B122 (peptide, not shown: large carriers)
peptide: HSGNRQSGSRRTHLLNIFCSSDTFVFPGWSAYLSRVCPGDAAAGAPVPYPDPLEPRP
B6: DGI-2-40F-3-D9 (peptide, not shown: large carriers)
peptide: RRTSADTDQLSRWEGAQAFSSLRSALSERLDSLRPGLPPSAAAGAPVPYPDPLEPRP
B7: DGI-2-40F-3-C7 (peptide, not shown: large carriers)
peptide: HPWVTNMLVFQRPPPPGFWLSDTTPRQRNGLGQVERPSVDAAAGAPVPYPDPLEPRP
B8: DGI-2-40F-3-B11 (peptide, not shown: large carriers)
peptide: LAPMFLQNQVRTWAASRRPLPAGPSNARCETGSLSPWVPCAAAGAPVPYPDPLEPRP
B9: DGI-2-40F-3-B95 (peptide, not shown: large carriers)
peptide: DYKTCVSQHVHPLFGEYFYHKVTHMSILSPTFRVTSLYGKAAAGAPVPYPDPLEPRP
B10: DGI-2-40F-3-B10 (peptide, not shown: large carriers)
peptide: MQAASTLSTYMGAIRMGYPILHWDRGGVQRVDPGLYRGRVAAAGAPVPYPDPLEPRP
B11: DGL-2-40F-3-D10 (peptide, not shown: large carriers)
peptide: TLVTEGNKGSVKAHKDIGVWQLWWDWLSVTDSETVGRVSHAAAGAPVPYPDPLEPRP
B12: DGI-2-40F-3-D12 (peptide, not shown: large carriers)
peptide: QGSAHVVRPPGVYDVPWKVGMFFHPQNWPNSWGRAYFRSGAAAGAPVPYPDPLEPRP
B13: DGI-2-40F-3-C6 (peptide, not shown: large carriers)
peptide: QMFSKGNWLAHPEGGVALGLSRESQLFRSCREFGYCMGPMAAAGAPVPYPDPLEPRP
B14: DGI-2-40F-3-D7 (peptide, not shown: large carriers)
peptide: ALRSLGSGGFGWQAGRASPQGMTHFPYFGWSGMPTARVRPAAAGAPVPYPDPLEPRP
B15: DGI-2-40F-4-F6 (peptide, not shown: large carriers)
peptide: SYRNFAMQSSLQVRRGSVVEDGTCWWEGVRCYSGAAAGAPVPYPDPLEPRP
B16: DGI-2-40F-3-B72 (peptide, not shown: large carriers)
peptide: PKDGAAFKGSDFIQGGQTVMERAPALWWRDGGGQWEAPSTAAAGAPVPYPDPLEPRP
B17: DGI-2-40F-3-D6 (peptide, not shown: large carriers)
peptide: GLEPVPFQTDKRIAMGWTREWLVNGYGAAHRRDARMQSGHAAAGAPVPYPDPLEPRP

The assay concerns the target lactate dehydrogenase (LDH). Kind of assay: phage ELISA, 405 nm; LDH coated. On the technique in general: ELISA stands for enzyme-linked immunosorbent assay.
Take TSCQVMFLAGQHLLSRVPRLAAAGAPVPYPDPLEPRP (peptide, not shown: large carriers) [DGL-2-20R-3-B6]: the LDH (OD) was 1 OD.

Take GLRACDTYLGFCVGARRIDDAAAGAPVPYPDPLEPRP (peptide, not shown: large carriers) [DGI-2-20F-3-B102]: the LDH (OD) came out at 1 OD.

Molecule MAVLPAARDFGGVVQGGVSGAAAGAPVPYPDPLEPRP (peptide, not shown: large carriers) [DGI-2-20F-3-C2] came in with an LDH (OD) of 1 OD.

As for TANGHRYGGCGLWCKWMSGMAAAGAPVPYPDPLEPRP (peptide, not shown: large carriers) [DGI-2-20R-4-E2], the LDH (OD) is 1.1 OD.

As to B1, the LDH (OD) is 0.8 OD.

As to B2, the LDH (OD) was found to be 0.9 OD.

GMWIRPNGHMFLQGGYTARSAAAGAPVPYPDPLEPRP (peptide, not shown: large carriers) [DGI-2-20R-4-G8] registered an LDH (OD) of 1.1 OD.

For B3, the LDH (OD) is 0.9 OD.

Molecule PAMGHCMQVLGPVLEGRSRDQVGRAAAGAPVPYPDPLEPRP (peptide, not shown: large carriers) [DGI-2-20R-4-G6] displayed an LDH (OD) of 1.1 OD.

For GSVLERGCLEFSGFCFSLGHAAAGAPVPYPDPLEPRP (peptide, not shown: large carriers) [DGI-2-20F-3-C1], the LDH (OD) was 1 OD.

Molecule B4 registered an LDH (OD) of 0.8 OD.

B5 registered an LDH (OD) of 0.8 OD.

RFWSVSYQGGRVMCREWGYCLPIAAAGAPVPYPDPLEPRP (peptide, not shown: large carriers) [DGI-2-40F-3-C92] returned an LDH (OD) of 0.8 OD.

In turn, LTWGPQFGSLQVYSRHRGLPAAAGAPVPYPDPLEPRP (peptide, not shown: large carriers) [DGI-2-20R-4-E4] showed an LDH (OD) of 1.2 OD.

In the case of B6, the LDH (OD) stood at 0.8 OD.

For SWRLWVSGELQGDRRKGLRGAAAGAPVPYPDPLEPRP (peptide, not shown: large carriers) [DGI-2-20R-3-B7], the LDH (OD) came to 1 OD.

On to MGSLGPFGNINSLASGIGSVRNRPLLPLHGSPAAAGAPVPYPDPLEPRP (peptide, not shown: large carriers) [DGI-2-40F-3-D72], for which the LDH (OD) is 1.1 OD.

With LSHPMSPLRAASQMALTQGVAAAGAPVPYPDPLEPRP (peptide, not shown: large carriers) [DGI-2-20R-4-H7], the LDH (OD) was 1.2 OD.

The molecule LHFGSVMGWRPPGSLWSRPFGQVHPRSWSGSAAAGAPVPYPDPLEPRP (peptide, not shown: large carriers) [DGI-2-40F-3-D11] registered an LDH (OD) of 1.3 OD.

Molecule SLSLYWDAQVGCEVFWGYCVAAAGAPVPYPDPLEPRP (peptide, not shown: large carriers) [DGI-2-20R-3-C10] had an LDH (OD) of 1 OD.

The molecule YDQVWNSLLAAVLGGQELVNAAAGAPVPYPDPLEPRP (peptide, not shown: large carriers) [DGI-2-20F-3-D112] showed an LDH (OD) of 1 OD.

LVIQCSASVVACDLYWNYVGCLAAGAAAGAPVPYPDPLEPRP (peptide, not shown: large carriers) [DGI-2-20C-3-D12] returned an LDH (OD) of 1 OD.

With B7, the LDH (OD) came to 0.8 OD.

For GNKCFPPHDLFWDPCDQLQSAAAGAPVPYPDPLEPRP (peptide, not shown: large carriers) [DGI-2-20R-4-F6], the LDH (OD) came out at 1 OD.

As for FSSVLGLLDRRGVPVVVGEDAAAGAPVPYPDPLEPRP (peptide, not shown: large carriers) [DGI-2-20F-3-C3], the LDH (OD) is 0.9 OD.

In turn, FSSTGILLRSGRATAVGHVTAAAGAPVPYPDPLEPRP (peptide, not shown: large carriers) [DGI-2-20F-3-A6] displayed an LDH (OD) of 1.1 OD.

On to B8, for which the LDH (OD) came to 0.9 OD.

The molecule B9 showed an LDH (OD) of 0.8 OD.

The molecule B10 had an LDH (OD) of 1 OD.

Turning to B11, the LDH (OD) was determined as 0.9 OD.

In turn, LTPYSLARSWLSGRPSTGATAAAGAPVPYPDPLEPRP (peptide, not shown: large carriers) [DGI-2-20F-3-C12] had an LDH (OD) of 1 OD.

LSVFRPGQFPHVGARGVSRTAAAGAPVPYPDPLEPRP (peptide, not shown: large carriers) [DGI-2-20R-4-G32] came in with an LDH (OD) of 1.1 OD.

Regarding RWSICRGLQYSIPGCAVEDLSDVMAAAAGAPVPYPDPLEPRP (peptide, not shown: large carriers) [DGI-2-20C-4-H316], the LDH (OD) is 1 OD.

LQIVRPAGWKMPGQVGYYIGAAAGAPVPYPDPLEPRP (peptide, not shown: large carriers) [DGI-2-20R-3-A9] yielded an LDH (OD) of 1 OD.

B12: the LDH (OD) came to 1 OD.

With RCFQDGRMLALSPTYLIRRSVSPLVVGPLPTPAAAGAPVPYPDPLEPRP (peptide, not shown: large carriers) [DGI-2-40F-3-A24], the LDH (OD) is 0.9 OD.

B13 came in with an LDH (OD) of 0.8 OD.

VAFGEQIRVAMAGTLWQRWRAAAGAPVPYPDPLEPRP (peptide, not shown: large carriers) [DGI-2-20R-3-D5] displayed an LDH (OD) of 1.1 OD.

The molecule RNWLDKDCVWMGDCGARAGEAAAGAPVPYPDPLEPRP (peptide, not shown: large carriers) [DGI-2-20F-4-E3] showed an LDH (OD) of 0.9 OD.

Take B14: the LDH (OD) amounted to 1 OD.

As for DAGIGWVGSMWFPPGCIGACAAAGAPVPYPDPLEPRP (peptide, not shown: large carriers) [DGI-2-20R-4-E82], the LDH (OD) was found to be 1.1 OD.

For the molecule LSLLSVVVRSMGASAPQRQVAAAGAPVPYPDPLEPRP (peptide, not shown: large carriers) [DGI-2-20F-3-A7], the LDH (OD) stood at 0.9 OD.

The molecule ACSVGTALVFPQRWWYLGRSAAAGAPVPYPDPLEPRP (peptide, not shown: large carriers) [DGL-2-20R-3-D6] had an LDH (OD) of 1.1 OD.

As for B15, the LDH (OD) came to 1 OD.

For LSRIWRGVIESAREVESRGIAAAGAPVPYPDPLEPRP (peptide, not shown: large carriers) [DGI-2-20F-3-B1], the LDH (OD) turned out to be 0.9 OD.

With MSTLQGPGHLFQMLRRASLGAAAGAPVPYPDPLEPRP (peptide, not shown: large carriers) [DGI-2-20R-4-H12], the LDH (OD) turned out to be 1.3 OD.

Turning to RWSLPAYLCRFVSQASCNSRAAAGAPVPYPDPLEPRP (peptide, not shown: large carriers) [DGI-2-20R-3-C12], the LDH (OD) amounted to 1 OD.

TPDRCLIYSSIQCLLEYSARRGSADAAAGAPVPYPDPLEPRP (peptide, not shown: large carriers) [DGI-2-20C-3-C65]: the LDH (OD) came out at 1 OD.

For the molecule WAGSTDLWQLWSLWVKPELRAAAGAPVPYPDPLEPRP (peptide, not shown: large carriers) [DGI-2-20F-3-B7], the LDH (OD) was 0.9 OD.

Molecule B16 returned an LDH (OD) of 0.7 OD.

Consider LHRLGQSMGGTLDHLQGWGVAAAGAPVPYPDPLEPRP (peptide, not shown: large carriers) [DGI-2-20R-4-E5], for which the LDH (OD) was found to be 1.1 OD.

For B17, the LDH (OD) came out at 1 OD.
